B1: APH fused to maltose binding protein (MBP) (designed binder)
chain: KQLEKELKQLEKELQAIEKQLAQLQWKAQARKKKLAQLKKKLQA
B2: APHvi (APH4) fused to maltose binding protein (MBP) (designed binder)
chain: KQLKQIEKRLKQIEKRLQAKEWEKAQLRKELQALRKKLAQLRE
B3: APHiv fused to maltose binding protein (MBP) (designed binder)
chain: KEKKQLRKELKQLEKELQALRWRLAQIEKRLQAIRKRLAQKEE
B4: APHiii (APH3) fused to maltose binding protein (MBP) (designed binder)
chain: KRKKQKRKRAKQLRKRLQALEWQLAQIRKELQAAEKEEAQIEE
B5: APHi fused to maltose binding protein (MBP) (designed binder)
chain: KEEKQIEKELKQIEKELQAIEWRLAQLRKRLQALRKRKAQKRE

Molecular target: the molecule itself
Test: AUC

In the case of B1, the “stoichiometry N” value is reported as 2.

Molecular target: the molecule itself
Test: AUC
Remark: another data set of the same source

Compared with B2, B3 is higher in “MW (global fit)/MW (calc., expected dimer mass)” value: 0.96 for the first, 1.23 for the second.

Compared with B4, B5 is higher in “MW (global fit)/MW (calc., expected dimer mass)” value: 0.94 for the first, 1.7 for the second.

Molecular target: the molecule itself
Test: AUC
Remark: another data set of the same source

Compared with B2, B3 is higher in “stoichiometry N” value: 2 for the first, over 2 for the second.

Going from B4 to B5, the “stoichiometry N” value rises from 2 to over 2.
